The values that follow come from patent US20090041784A1 (Amgen, published 2009).

Sequences and labels used below:
B1: antibody A-5 (antibody, V domains shown)
VH: QVQLVESGGGVVQPGRSLRLSCAASGFTFSTYGMHWVRQAPGKGLEWVAVISDDGSHKYSADSVKGRFTISRDNSKNTLYLQMNSLRTEDSAVYYCAREETYYDILTGYHHYYGMDVWGQGTTVTVSS
VL: DIQMTQSPSSLSAFVGDRVTITCRASQGIRNDLGWYQQKPGKAPKRLLYAASSLQSGVPSRFSGSGSGSEFTLTISSLQPEDFATYYCLQHNSDPLTFGQGTRLEIK
B2: antibody A-7 (antibody, V domains shown)
VH: QVQLVESGGGVVQPGRSLRLSCAASGFTFSSYDMHWVRQAPGKGLEWVAVISHDGSDKYYADSVKGRFTISRDNSKNTLYLQMSSLRAEDTAVYYCAREKPYYDILTGYFYYYGMDVWGQGTTVTVSS
VL: DIQMTQSPSSLSASVGDRVTVTCRASQDIRNDFGWYQQKPGKAPKRLIYAASSLQSGVPSRFSGSGSGTEFTLTISSLQPEDFATYYCLQQNSYPLTFGGGTKVEIK
B3: antibody A-6 (antibody, V domains shown)
VH: QVQLVESGGGVVQPGRSLRLSCAASGFTFSSYGMHWVRQAPGKGLEWVAEIWNDGSNKYYADSVKGRFTISRDNPKNTLYLQMNSLRAEDTAVYYCAREPQYYDILTGYDNYYGMDVWGQGTTVTVSS
VL: EIVLTQSPGTLSLFPGERATLSCRASQSVSSNYLAWYQQKSGQAPRLLIYGASSRATGIPDRFSGSGSGTDFTLTISRLEPEDFAVYYCQQYGNSPFTFGPGTNVDIK
B4: antibody A-11 (antibody, V domains shown)
VH: QVQLVESGGGVVQPGRSLRLSCAASGSTFRSYDMHWVRQAPGKGLEWVAFISDDGSNKYYGDSVKGRLTISRDNSKNTLYLQMNSLRAEDTAVYYCARDQYDILTGYSSDAFDIWGQGTMVTVSS
VL: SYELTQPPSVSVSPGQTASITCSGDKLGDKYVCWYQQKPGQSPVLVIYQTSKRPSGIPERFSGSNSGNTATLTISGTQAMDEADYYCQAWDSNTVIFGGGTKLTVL
B5: antibody A-12 (antibody, V domains shown)
VH: QVQLVESGGGVVQPGRSLRLSCAASGSTFRSYDMHWVRQAPGKGLEWVAFISDDGSNKYYGDSVKGRLTISRDNSKNTLYLQMNSLRAEDTAVYYCARDQYDILTGYSSDAFDIWGQGTMVTVSS
VL: not shown
B6: antibody A-1 (antibody, V domains shown)
VH: QVQLVESGGGVVQPGRSLRLSCAASGITFSSYGMHWVRQAPGKGLEWVASIWYDGSNKYYVDSVKGRFTIFRDNSKKTLYLQMNRLRAEDTAVYYCARLGGGFDYWGQGTLVTVSS
VL: DIVLTQTPLSLPVTPGEPASISCRSSQSLLDRDDGDTYLDWYLQKPGQSPQLLIYTLSYRASGVPDRFSGSGSGTDFSLKISRVEAEDVGVYYCMQRIEFPFTFGPGTKVDIK
B7: antibody A-2 (antibody, V domains shown)
VH: QVQLVESGGGVVQPGRSLRLSCAASGITFSSYGMHWVRQGPGKGLEWVAFIWYDGSEKYYVDSVKGRFTISRDNSKNTLYLQMNSLRAEDTAVYYCARMGGGFDYWGQGTLVTVSS
VL: DIVMTQTPLSLPVTPGEPASISCRSSQSLLDSADGDTYLDWYLQKPGQSPQLLIYTLSYRASGVPDRFSGSGSDTDFSLKISRVEAEDVGVYYCMQRIEFPFTFGPGTKVDIK
B8: antibody A-8 (antibody, V domains shown)
VH: QVQLAESGGGVVQPGRSLRLSCTASGITFSSYGMHWVRQAPGKGLEWVAGIWYDGRNKYYVDSVKGRFTISRDNSKKTLYLQMNSLRAEDTAVYYCARLAVAFDYWGQGTLVTVSS
VL: DIVMTQTPLSLPVTPGEPASISCRSTQSLLDSDDGDTYLDWYLQKPGQSPQLLIYTLSYRASGVPDRFSGSGSGTDFTLKISRVEAEDVGVYYCMQRIEFPFTFGPGTKVDIK

The assay deals with human glucagon receptor (human, UniProt P47871 26-477). Put plainly: cell-based or functional assay.
With B1, the “IC50 of inhibition of glucagon-induced cAMP production (HTRF, CHO K1 cells expressing the receptor)” value turned out to be 13.3 nM.

Take B2: the “IC50 of inhibition of glucagon-induced cAMP production (HTRF, CHO K1 cells expressing the receptor)” value came out at 8.8 nM.

Consider B3, for which the “IC50 of inhibition of glucagon-induced cAMP production (HTRF, CHO K1 cells expressing the receptor)” value worked out at 32.2 nM.

On to B4, for which the “IC50 of inhibition of glucagon-induced cAMP production (HTRF, CHO K1 cells expressing the receptor)” value was found to be 16.7 nM.

As to B5, the “IC50 of inhibition of glucagon-induced cAMP production (HTRF, CHO K1 cells expressing the receptor)” value turned out to be 21.3 nM.

Turning to B6, the “IC50 of inhibition of glucagon-induced cAMP production (HTRF, CHO K1 cells expressing the receptor)” value is 15 nM.

For the molecule B7, the “IC50 of inhibition of glucagon-induced cAMP production (HTRF, CHO K1 cells expressing the receptor)” value was 10.1 nM.

On to B8, for which the “IC50 of inhibition of glucagon-induced cAMP production (HTRF, CHO K1 cells expressing the receptor)” value turned out to be 10.4 nM.
